± gives the uncertainty stated by the source.
B1: Far upstream element-binding protein 1, residues 98 to 169; numbered along this chain, Q96AE4 (parent)
chain: RSVMTEEYKVPDGMVGFIIGRGGEQISRIQQESGCKIQIAPDSGGLPERSCMLTGTPESVQSAKRLLDQIVE

Variants of: B1
Test: abundance fitness (aPCA) (normalised: wild type 0, dead -1); higher = more abundant; growth selection in yeast, the domain comes from the species named
Conditions: Homo sapiens

Variant	abundance fitness
DSVMTEEYKVPDGMVGFIIGRGGEQISRIQQESGCKIQIAPDSGGLPERSCMLTGTPESVQSAKRLLDQIVE [R1D]	0.042 ± 0.048
NSVMTEEYKVPDGMVGFIIGRGGEQISRIQQESGCKIQIAPDSGGLPERSCMLTGTPESVQSAKRLLDQIVE [R1N]	0.043 ± 0.034
VSVMTEEYKVPDGMVGFIIGRGGEQISRIQQESGCKIQIAPDSGGLPERSCMLTGTPESVQSAKRLLDQIVE [R1V]	-0.035 ± 0.036
YSVMTEEYKVPDGMVGFIIGRGGEQISRIQQESGCKIQIAPDSGGLPERSCMLTGTPESVQSAKRLLDQIVE [R1Y]	0.011 ± 0.046
PSVMTEEYKVPDGMVGFIIGRGGEQISRIQQESGCKIQIAPDSGGLPERSCMLTGTPESVQSAKRLLDQIVE [R1P]	-0.286 ± 0.062
CSVMTEEYKVPDGMVGFIIGRGGEQISRIQQESGCKIQIAPDSGGLPERSCMLTGTPESVQSAKRLLDQIVE [R1C]	-0.013 ± 0.033
ESVMTEEYKVPDGMVGFIIGRGGEQISRIQQESGCKIQIAPDSGGLPERSCMLTGTPESVQSAKRLLDQIVE [R1E]	-0.194 ± 0.054
ISVMTEEYKVPDGMVGFIIGRGGEQISRIQQESGCKIQIAPDSGGLPERSCMLTGTPESVQSAKRLLDQIVE [R1I]	0.01 ± 0.034
WSVMTEEYKVPDGMVGFIIGRGGEQISRIQQESGCKIQIAPDSGGLPERSCMLTGTPESVQSAKRLLDQIVE [R1W]	-0.269 ± 0.035
GSVMTEEYKVPDGMVGFIIGRGGEQISRIQQESGCKIQIAPDSGGLPERSCMLTGTPESVQSAKRLLDQIVE [R1G]	-0.102 ± 0.031
KSVMTEEYKVPDGMVGFIIGRGGEQISRIQQESGCKIQIAPDSGGLPERSCMLTGTPESVQSAKRLLDQIVE [R1K]	-0.081 ± 0.035
LSVMTEEYKVPDGMVGFIIGRGGEQISRIQQESGCKIQIAPDSGGLPERSCMLTGTPESVQSAKRLLDQIVE [R1L]	-0.131 ± 0.038
ASVMTEEYKVPDGMVGFIIGRGGEQISRIQQESGCKIQIAPDSGGLPERSCMLTGTPESVQSAKRLLDQIVE [R1A]	-0.125 ± 0.043
HSVMTEEYKVPDGMVGFIIGRGGEQISRIQQESGCKIQIAPDSGGLPERSCMLTGTPESVQSAKRLLDQIVE [R1H]	-0.219 ± 0.065
RSVMDEEYKVPDGMVGFIIGRGGEQISRIQQESGCKIQIAPDSGGLPERSCMLTGTPESVQSAKRLLDQIVE [T5D]	-0.149 ± 0.04
RSVMCEEYKVPDGMVGFIIGRGGEQISRIQQESGCKIQIAPDSGGLPERSCMLTGTPESVQSAKRLLDQIVE [T5C]	-0.072 ± 0.036
RSVMAEEYKVPDGMVGFIIGRGGEQISRIQQESGCKIQIAPDSGGLPERSCMLTGTPESVQSAKRLLDQIVE [T5A]	0 ± 0.028
RSVMFEEYKVPDGMVGFIIGRGGEQISRIQQESGCKIQIAPDSGGLPERSCMLTGTPESVQSAKRLLDQIVE [T5F]	-0.006 ± 0.046
RSVMEEEYKVPDGMVGFIIGRGGEQISRIQQESGCKIQIAPDSGGLPERSCMLTGTPESVQSAKRLLDQIVE [T5E]	0.009 ± 0.03

Variant	abundance fitness
RSVMGEEYKVPDGMVGFIIGRGGEQISRIQQESGCKIQIAPDSGGLPERSCMLTGTPESVQSAKRLLDQIVE [T5G]	-0.101 ± 0.024
RVVMTEEYKVPDGMVGFIIGRGGEQISRIQQESGCKIQIAPDSGGLPERSCMLTGTPESVQSAKRLLDQIVE [S2V]	-0.036 ± 0.029
RMVMTEEYKVPDGMVGFIIGRGGEQISRIQQESGCKIQIAPDSGGLPERSCMLTGTPESVQSAKRLLDQIVE [S2M]	0.038 ± 0.037
RNVMTEEYKVPDGMVGFIIGRGGEQISRIQQESGCKIQIAPDSGGLPERSCMLTGTPESVQSAKRLLDQIVE [S2N]	-0.143 ± 0.057
RIVMTEEYKVPDGMVGFIIGRGGEQISRIQQESGCKIQIAPDSGGLPERSCMLTGTPESVQSAKRLLDQIVE [S2I]	-0.077 ± 0.048
RQVMTEEYKVPDGMVGFIIGRGGEQISRIQQESGCKIQIAPDSGGLPERSCMLTGTPESVQSAKRLLDQIVE [S2Q]	0.015 ± 0.035
RTVMTEEYKVPDGMVGFIIGRGGEQISRIQQESGCKIQIAPDSGGLPERSCMLTGTPESVQSAKRLLDQIVE [S2T]	0.012 ± 0.03
RAVMTEEYKVPDGMVGFIIGRGGEQISRIQQESGCKIQIAPDSGGLPERSCMLTGTPESVQSAKRLLDQIVE [S2A]	-0.033 ± 0.027
RPVMTEEYKVPDGMVGFIIGRGGEQISRIQQESGCKIQIAPDSGGLPERSCMLTGTPESVQSAKRLLDQIVE [S2P]	-0.064 ± 0.031
RKVMTEEYKVPDGMVGFIIGRGGEQISRIQQESGCKIQIAPDSGGLPERSCMLTGTPESVQSAKRLLDQIVE [S2K]	-0.006 ± 0.039
RCVMTEEYKVPDGMVGFIIGRGGEQISRIQQESGCKIQIAPDSGGLPERSCMLTGTPESVQSAKRLLDQIVE [S2C]	-0.085 ± 0.037
RFVMTEEYKVPDGMVGFIIGRGGEQISRIQQESGCKIQIAPDSGGLPERSCMLTGTPESVQSAKRLLDQIVE [S2F]	-0.026 ± 0.039
RLVMTEEYKVPDGMVGFIIGRGGEQISRIQQESGCKIQIAPDSGGLPERSCMLTGTPESVQSAKRLLDQIVE [S2L]	-0.052 ± 0.027
RHVMTEEYKVPDGMVGFIIGRGGEQISRIQQESGCKIQIAPDSGGLPERSCMLTGTPESVQSAKRLLDQIVE [S2H]	-0.15 ± 0.048
RRVMTEEYKVPDGMVGFIIGRGGEQISRIQQESGCKIQIAPDSGGLPERSCMLTGTPESVQSAKRLLDQIVE [S2R]	-0.004 ± 0.025
RWVMTEEYKVPDGMVGFIIGRGGEQISRIQQESGCKIQIAPDSGGLPERSCMLTGTPESVQSAKRLLDQIVE [S2W]	-0.133 ± 0.035
RYVMTEEYKVPDGMVGFIIGRGGEQISRIQQESGCKIQIAPDSGGLPERSCMLTGTPESVQSAKRLLDQIVE [S2Y]	-0.087 ± 0.049
REVMTEEYKVPDGMVGFIIGRGGEQISRIQQESGCKIQIAPDSGGLPERSCMLTGTPESVQSAKRLLDQIVE [S2E]	-0.007 ± 0.037
RGVMTEEYKVPDGMVGFIIGRGGEQISRIQQESGCKIQIAPDSGGLPERSCMLTGTPESVQSAKRLLDQIVE [S2G]	-0.003 ± 0.026

From the Human Domainome abundance scans (Beltran et al. 2025)
